Here are results for six molecules from paper PMC5943153 (Molecular microbiology, 2018).

The series “SEC” concerns the molecule itself. Kind of series: SEC.
For another series, the target named is T1, T25-HP1492 (Nfu) (Helicobacter pylori strain 26695, UniProt O26025 2-89).
T1 sequence (looked up): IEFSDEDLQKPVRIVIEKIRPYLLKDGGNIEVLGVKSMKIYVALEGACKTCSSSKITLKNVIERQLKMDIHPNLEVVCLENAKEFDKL
Kind of series: two-hybrid.

A further series has as its target T25-HP0220 (NifS) (Helicobacter pylori strain 26695, UniProt O25008 2-387). Kind of series: two-hybrid.
Another series addresses T2, HP0221-T25 (NifU) (Helicobacter pylori strain 26695, UniProt O25009 2-326).
T2 sequence (looked up): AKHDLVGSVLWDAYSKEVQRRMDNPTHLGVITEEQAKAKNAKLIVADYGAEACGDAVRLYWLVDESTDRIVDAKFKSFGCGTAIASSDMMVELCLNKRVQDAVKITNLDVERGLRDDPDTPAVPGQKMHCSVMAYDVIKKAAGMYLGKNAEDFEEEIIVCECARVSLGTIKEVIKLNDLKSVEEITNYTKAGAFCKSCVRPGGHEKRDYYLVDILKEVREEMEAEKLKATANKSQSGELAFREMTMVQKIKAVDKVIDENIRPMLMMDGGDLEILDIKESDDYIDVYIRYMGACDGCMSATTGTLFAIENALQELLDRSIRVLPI
Kind of series: two-hybrid.

A further series addresses T3, T25-HP0221 (NifU) (Helicobacter pylori strain 26695, UniProt O25009 2-326).
T3 sequence (looked up): T2 sequence (looked up)
The series is described as follows: two-hybrid.

Values joined by “and” are separate entries in the source; they are usually repeats but may differ in a detail not shown here. Equal entries are not always repeated.

B1: NifU (purified recombinant) (natural protein, Helicobacter pylori strain 26695, UniProt O25009 1-326, looked up)
chain: MAKHDLVGSVLWDAYSKEVQRRMDNPTHLGVITEEQAKAKNAKLIVADYGAEACGDAVRLYWLVDESTDRIVDAKFKSFGCGTAIASSDMMVELCLNKRVQDAVKITNLDVERGLRDDPDTPAVPGQKMHCSVMAYDVIKKAAGMYLGKNAEDFEEEIIVCECARVSLGTIKEVIKLNDLKSVEEITNYTKAGAFCKSCVRPGGHEKRDYYLVDILKEVREEMEAEKLKATANKSQSGELAFREMTMVQKIKAVDKVIDENIRPMLMMDGGDLEILDIKESDDYIDVYIRYMGACDGCMSATTGTLFAIENALQELLDRSIRVLPI
Consider B1, for which the “stoichiometry N” value in “SEC” was 2.

B2: Nfu (purified recombinant) (natural protein, Helicobacter pylori strain 26695, UniProt O26025 1-89, looked up)
chain: MIEFSDEDLQKPVRIVIEKIRPYLLKDGGNIEVLGVKSMKIYVALEGACKTCSSSKITLKNVIERQLKMDIHPNLEVVCLENAKEFDKL
Regarding B2, the “stoichiometry N” value in the series “SEC” was 4 and 2.

B3: NifS (purified recombinant) (enzyme, Helicobacter pylori strain 26695, UniProt O25008 1-387, looked up)
chain: MLQRIYLDNNATTRIDPKVKEIMDPFLRDHYGNPSSLHQFGTETHPAIAEALDKLYKGINARDIDDVIITSCATESNNWVLKGVYFDECLKKGKNHIVTTVAEHPAVRSTCNFLESLGVEVTYLPINEHGSITAEQVKEAITEKTALVSVMWANNETGLIFPIEEIGAICKEKGVLFHTDAVQAIGKIPVDVLKANADFLSFSAHKFHGPKGIGGLYIRSGVGLTPLFHGGEHMNGRRSGTLNVPYIVGMGEAMKLAVEHLDYEKEVVGKLRDKLEEALLKIPDVMVVGDRIHRVPNTTLVSVRGIEGEAMLWDLNRSNIAASTGSACASEDLEANPVMVAIGASKELAHTAIRLSLSRFNTEAEIDKTIEVFSQAAVRLRNISSSY
As to B3, the “stoichiometry N” value in the series “SEC” worked out at 2.

B4: T18-HP0220 (natural protein, Helicobacter pylori strain 26695, UniProt O25008 2-387, looked up)
chain: LQRIYLDNNATTRIDPKVKEIMDPFLRDHYGNPSSLHQFGTETHPAIAEALDKLYKGINARDIDDVIITSCATESNNWVLKGVYFDECLKKGKNHIVTTVAEHPAVRSTCNFLESLGVEVTYLPINEHGSITAEQVKEAITEKTALVSVMWANNETGLIFPIEEIGAICKEKGVLFHTDAVQAIGKIPVDVLKANADFLSFSAHKFHGPKGIGGLYIRSGVGLTPLFHGGEHMNGRRSGTLNVPYIVGMGEAMKLAVEHLDYEKEVVGKLRDKLEEALLKIPDVMVVGDRIHRVPNTTLVSVRGIEGEAMLWDLNRSNIAASTGSACASEDLEANPVMVAIGASKELAHTAIRLSLSRFNTEAEIDKTIEVFSQAAVRLRNISSSY
As for B4, the “growth OD595 in M63-maltose” value with T25-HP1492 (Nfu) is 0.22 OD595; in the series with T25-HP0220 (NifS), 0.29 OD595; with HP0221-T25 (NifU) it was 0.11 OD595; in the series with T25-HP0221 (NifU), 0.13 OD595.

B5: T18-HP0207 (natural protein, Helicobacter pylori strain 26695, UniProt O24999 2-368, looked up)
chain: LTQEDVLNALKTIIYPNFEKDIVSFGFVKNITLHDDQLGLLIEIPSSSEETSAILRENISKAMQEKGVKALNLDIKTPPKPQAPKPTTKNLAKNIKHVVMISSGKGGVGKSTTSVNLSIALANLNQKVGLLDADVYGPNIPRMMGLQSADVIMDPSGKKLIPLKAFGVSVMSMGLLYDEGQSLIWRGPMLMRAIEQMLSDIIWGDLDVLVVDMPPGTGDAQLTLAQAVPLSAGITVTTPQIVSLDDAKRSLDMFKKLHIPIAGIVENMGSFVCEHCKKESEIFGSNSMSELLEAYHTQILAKLPLEPKVRLGGDRGEPIVISHPNSVSAKIFEKMAQDLSAFLERVKKEKLADNKDIQPTQTHACSH
Regarding B5, the “growth OD595 in M63-maltose” value was determined as 0.21 OD595 with T25-HP1492 (Nfu), 0.23 OD595 with T25-HP0220 (NifS), 0.13 OD595 in the series with HP0221-T25 (NifU) and 0.14 OD595 with T25-HP0221 (NifU).

B6: T18-HP1266 (natural protein, Helicobacter pylori strain 26695, UniProt O25856 2-844, looked up)
chain: ITMNINGKTIECQEGQSVLEAARSAGIYIPTICYLSGCSPTVACKMCMVEMDGKRVYSCNTKAKNNATILTNTPTLMDERKSIMQTYDVNHPLECGVCDKSGECELQDMTHLTGVEHQPYAVADDFKALDFWAKALYDPNLCIMCERCVTTCKDNVGENNLKATKADLHAPDKFKDSMSKDAFSVWSRKQKGIISFVGSVPCYDCGECIAVCPVGALSYKDFAYTANAWELKKIHSTCSHCSAGCLISYDVRHFDTLGEESKIFRVLNDFYHNPICGAGRFAFDVSSSPKGSANLKEAQNALKECEAVRIGGDITNEEAFLIERLRKELDFKIYNQEAYRFQQFLKVLGEIKRPSVEEIKTSHLVVTIGSSIKTENPLVRYAINNALKLNKASLIAMHPIKDNALANLCRSSFCITHEVGAEEILLGMLLKMLNIESAALKSLEDSKQNIVDEAALKALEEERKKALEQAEQGCSIGENKAENQEENKTEATTPKEENQEENKTEVKEEKIEVPTKTTYLLLEEAGINLETYEKILALLQKSNNTLLVVGEEIYSHKQAHNIAKMLRLLAQKSAIKLILIPPSANALGIASICQLSEEIFEHEKIVGIRAQGDFTINSDDRVFGKDAASKVDFILPSLNQLEGTITNIEGRVLPLKPALRFEGYDLSDIMQGFGFVEENLIECTHKLPTEAGFKAIEFDYLTNYFANDRVNHRGYLLGTSHFEKSAKECETIECEPIKPLKEKIAFNAYLKYPETQFNNATNKSENLQLKAGVYVSKAFLKKLNKEVGQNITLSKEEEELTGVLYLDESLDQEVFVISPSLLKNHSGFFREGVFDSVDLKEQA
With B6, the figures for the “growth OD595 in M63-maltose” value in the series with T25-HP1492 (Nfu) and in the series with T25-HP0220 (NifS) were 0.24 OD595 and 0.16 OD595, respectively.
